From paper PMC11272775, “Epigenetic memory is governed by an effector recruitment specificity toggle in Heterochromatin Protein 1” (Nature Communications, 2024)

System: Swi6-Y (Swi6-T278Y) (Schizosaccharomyces pombe)
Assay: EMSA
Settings: 20 mM Hepes pH 7.5, 4 mM Tris, 80 mM KCl, 0.1% Igepal CA-630, 0.2 mM EDTA, 2 mM DTT, 10% glycerol, 10 nM mononucleosome, 30 °C 45 min, 6% acrylamide 0.5x TBE …

For H3K9me0 mononucleosome, which binding signal (fold weaker than H3K9me3) (H3K9me0 histone, unmodified H3 (H3K9me0)) is on record?
The binding signal (fold weaker than H3K9me3) was 2.3.

Which K half (H3K9me3 histone, histone H3K9me3 (DNA unmodified)) does the source give for H3K9me3 mononucleosome here?
The K half was 39 nM.
